Reference: article PMC7845616, “Convergent Evolution of a Promiscuous 3-Hydroxypropionyl-CoA Dehydratase/Crotonyl-CoA Hydratase in Crenarchaeota and Thaumarchaeota” (mSphere, 2021)

How the values were obtained:
Format in all cases: biochemical, Metallosphaera sedula
[1] = substrate: CC(C)(COP(=O)(O)OP(=O)(O)OC[C@H]1O[C@@H](n2cnc3c(N)ncnc32)[C@H](O)[C@@H]1OP(=O)(O)O)[C@@H](O)C(=O)NCCC(=O)NCCSC(=O)CCO; experiment: dehydration coupled to Ccr, UHPLC; conditions: 100 mM Tris-HCl pH 7.8, 42°C, 1 mM NADPH, 50 mM NaHCO3, Ccr
Text: (§1) dehydration coupled to Ccr, UHPLC on Msed_2001

[2] = substrate: C[C@H](O)CC(=O)SCCNC(=O)CCNC(=O)[C@H](O)C(C)(C)COP(=O)(O)OP(=O)(O)OC[C@H]1O[C@@H](n2cnc3c(N)ncnc32)[C@H](O)[C@@H]1OP(=O)(O)O; experiment: dehydration coupled to Ccr, UHPLC; conditions: 100 mM Tris-HCl pH 7.8, 42°C, 1 mM NADPH, 50 mM NaHCO3, Ccr
Text: as §1

[3] = substrate: C=CC(=O)SCCNC(=O)CCNC(=O)[C@H](O)C(C)(C)COP(=O)(O)OP(=O)(O)OC[C@H]1O[C@@H](n2cnc3c(N)ncnc32)[C@H](O)[C@@H]1OP(=O)(O)O; experiment: UHPLC of 3-hydroxypropionyl-CoA formed; conditions: 100 mM Tris-HCl pH 7.8, 65°C
Text: UHPLC of 3-hydroxypropionyl-CoA formed on Msed_2001

[4] = substrate: CCCCC/C=C/C(=O)SCCNC(=O)CCNC(=O)[C@H](O)C(C)(C)COP(=O)(O)OP(=O)(O)OC[C@H]1O[C@@H](n2cnc3c(N)ncnc32)[C@H](O)[C@@H]1OP(=O)(O)O; experiment: UHPLC of 3-hydroxyoctanoyl-CoA formed; conditions: 100 mM Tris-HCl pH 7.8, 65°C
Text: UHPLC of 3-hydroxyoctanoyl-CoA formed on Msed_2001

[5] = substrate: C/C=C/C(=O)SCCNC(=O)CCNC(=O)[C@H](O)C(C)(C)COP(=O)(O)OP(=O)(O)OC[C@H]1O[C@@H](n2cnc3c(N)ncnc32)[C@H](O)[C@@H]1OP(=O)(O)O; experiment: UHPLC of 3-hydroxybutyryl-CoA formed; conditions: 100 mM Tris-HCl pH 7.8, 65°C
Text: UHPLC of 3-hydroxybutyryl-CoA formed on Msed_2001

[6] = substrate: C=CC(=O)SCCNC(=O)CCNC(=O)[C@H](O)C(C)(C)COP(=O)(O)OP(=O)(O)OC[C@H]1O[C@@H](n2cnc3c(N)ncnc32)[C@H](O)[C@@H]1OP(=O)(O)O; experiment: UHPLC of 3-hydroxypropionyl-CoA formed; conditions: 100 mM Tris-HCl pH 7.8, 65°C; remark: listed apart in the source
Text: UHPLC of 3-hydroxypropionyl-CoA formed on Msed_0566

[7] = substrate: C=C(C)C(=O)SCCNC(=O)CCNC(=O)[C@H](O)C(C)(C)COP(=O)(O)OP(=O)(O)OC[C@H]1O[C@@H](n2cnc3c(N)ncnc32)[C@H](O)[C@@H]1OP(=O)(O)O; experiment: UHPLC of 3-hydroxy-2-methylpropionyl-CoA formed; conditions: 100 mM Tris-HCl pH 7.8, 65°C
Text: UHPLC of 3-hydroxy-2-methylpropionyl-CoA formed on Msed_0566

[8] = substrate: CCCCC/C=C/C(=O)SCCNC(=O)CCNC(=O)[C@H](O)C(C)(C)COP(=O)(O)OP(=O)(O)OC[C@H]1O[C@@H](n2cnc3c(N)ncnc32)[C@H](O)[C@@H]1OP(=O)(O)O; experiment: UHPLC of 3-hydroxyoctanoyl-CoA formed; conditions: 100 mM Tris-HCl pH 7.8, 65°C; remark: listed apart in the source
Text: UHPLC of 3-hydroxyoctanoyl-CoA formed on Msed_0566

[9] = substrate: C/C=C/C(=O)SCCNC(=O)CCNC(=O)[C@H](O)C(C)(C)COP(=O)(O)OP(=O)(O)OC[C@H]1O[C@@H](n2cnc3c(N)ncnc32)[C@H](O)[C@@H]1OP(=O)(O)O; experiment: UHPLC of 3-hydroxybutyryl-CoA formed; conditions: 100 mM Tris-HCl pH 7.8, 65°C; remark: listed apart in the source
Text: UHPLC of 3-hydroxybutyryl-CoA formed on Msed_0566

B1: Msed_2001 (Metallosphaera sedula DSM 5348) (protein)
chain: MEFETIETKKEGNLFWITLNRPDKLNALNAKLLEELDRAVSQAESDPEIRVIIITGKGKAFCAGADITQFNQLTPAEAWKFSKKGREIMDKIEALSKPTIAMINGYALGGGLELALACDIRIAAEEAQLGLPEINLGIYPGYGGTQRLTRVIGKGRALEMMMTGDRIPGKDAEKYGLVNRVVPLANLEQETRKLAEKIAKKSPISLALIKEVVNRGLDSPLLSGLALESVGWGVVFSTEDKKEGVSAFLEKREPTFKGK
notes: pET16b, N-terminal His10-tag, expressed in E. coli Rosetta 2 (DE3), heat precipitation and Ni-NTA purified
- Km [1]: 160 ± 20 µM
- kcat/Km [1]: 3.26e+06 M⁻¹ s⁻¹
- Km [2]: 34 ± 4 µM
- kcat/Km [2]: 4.38e+07 M⁻¹ s⁻¹
- Km [3]: 140 ± 10 µM
- kcat/Km [3]: 9.94e+07 M⁻¹ s⁻¹
- Km [4]: 48 ± 5 µM
- kcat/Km [4]: 3.94e+07 M⁻¹ s⁻¹
- Km [5]: 80 ± 10 µM
- kcat/Km [5]: 3.16e+07 M⁻¹ s⁻¹

B2: Msed_0566 (Metallosphaera sedula DSM 5348) (protein)
chain: MDVILEKRKGYLLLTFNTGGRYNVFTTRFMIEMIDTLSEVEKIRDPHYLVIKGENGNFGAGADVKELLKANGDKEYAKVYFGHMKDLFVKMLSLNKVTIGLIEGVAYGASMELLLALDIVIAKRGTKFAAPGGKLGVFPPVLVSIGPYLLGHRTSRKLAMLGEELDTQGAINAGLIDYEVDDLEKGLLELLNRLKVMSPSAQVRMRKLILQSLIPHLEKAFDELATQVTSDEAREGISSFFSKTSPSWSSVGFS
notes: pET16b, His10-tagged, expressed in E. coli Rosetta 2 (DE3), Ni-NTA purified
- Km [6]: 37 ± 2 µM
- kcat/Km [6]: 39000 M⁻¹ s⁻¹
- Km [7]: 140 ± 30 µM
- kcat/Km [7]: 2000 M⁻¹ s⁻¹
- Km [8]: 180 ± 60 µM
- kcat/Km [8]: 16000 M⁻¹ s⁻¹
- Km [9]: 80 ± 30 µM
- kcat/Km [9]: 19000 M⁻¹ s⁻¹
